Test results as given in publication PMC5770198.

B1: SbCYP82D1.1 (Scutellaria baicalensis) (protein)
chain: MELSSVIYGAIALLSLFYCYLHFSKPKKSSLNAPPEAGGARFITGHLHLMDGRSASDKLPHINLGLLADQHGPIFTIRLGVHRAVVVSSWELAKEIFTTHDTAVMARPRLIADDYLSYDGASLGFSPYGPYWREIRKLVTTELLSARRIELQRATRVREITQFTGELYKLWEEKKDGSGRVLVDMKQWLGNLSLNLVSRMVVGKRFYGGDDSETTKRWRGVMREFFQLIGQFIPGDGLPFLRWLDLGGFEKRTRDTAYELDKIIAMWLAEYRKREYSGDDKEQCFMALMLSLVQANPTLQLHYDADTIIKATCQVLISAASDTTTVILIWVISLLLNNADVLKKVQEELDEQVGRERRVEESDISNLPYLQAVVKETMRLYPPAPFAGVRAFSEDCTVGGYHIQKGTFLIVNLWKLHRDPRVWSDDALEFKPQRFFDKKVEVKGQDFELMPFGGGRRMCPGSNLGMHMVHFVLANILQAFDITTGSTVDMTESVGLTNMKATPLDAILTPRLSPTLY
B2: SbCYP82D2 (Scutellaria baicalensis) (protein)
chain: MLYDNSQYLAMEFSSAIYGAIAFFLFLYYCLLYTTSSKPNTRAYKAPPEAGGARLFSGHLHLMAGGTTGELPHINLANLADKHGPVFTIRLGVKRALVVSSWESAKELFTTCDVAVSSRPRMKAAKLLGYDFAMFGFAPYGAYWRELRKLISVELLSTRRMELQKEVRDSETRESIKELYKLWEERSEGSDSVLVDMKQWFGDLNLNVVLRMVAGKRWIGPETGRWREVLRDFFYLAGMFVPADAFPFLGWLDLGGHEKRMRQTAKELDGIVGGWVAEHREKEYSGEDKPKDFVDVMLSVVQGSSLRADYDADTIIKATCEALIVGGSDTTTVMLIWTLSFLLNNRHVLRKAQEELDKHVGRERRVNQSDINNLVYLQAIVKETLRLYPAGPIGGIREFTQDCQVGGYHVPKGTWLIVNLWKLHRDPKVWSEDCLEFRPERFLNKNIDVRGQDFELIPFGGGRRICPGANFGLHMLHLVLANLLQAFELTTVSDQVIDMTESAGMTNMKATPLNVLVAPRLSPTLY

Substrate: O=c1cc(-c2ccccc2)oc2cc(O)cc(O)c12
Test: cells, lysate or membranes
Details: 1 mM NADPH, 100 mM sodium phosphate pH 7.9, 0.5 mM reduced glutathione, 28°C, chrysin 0.1-5 μM

Protein | Km (3 min) [µM] | Km (30 min) [µM]
B1 | 0.121 | –
B2 | – | 1.051
